For this test, the target named is T1, human glycyl-tRNA synthetase, wild type (GlyRS^WT) (human, UniProt P41250 55-739).
T1 construct: also called WT GlyRS; GARS
T1 sequence: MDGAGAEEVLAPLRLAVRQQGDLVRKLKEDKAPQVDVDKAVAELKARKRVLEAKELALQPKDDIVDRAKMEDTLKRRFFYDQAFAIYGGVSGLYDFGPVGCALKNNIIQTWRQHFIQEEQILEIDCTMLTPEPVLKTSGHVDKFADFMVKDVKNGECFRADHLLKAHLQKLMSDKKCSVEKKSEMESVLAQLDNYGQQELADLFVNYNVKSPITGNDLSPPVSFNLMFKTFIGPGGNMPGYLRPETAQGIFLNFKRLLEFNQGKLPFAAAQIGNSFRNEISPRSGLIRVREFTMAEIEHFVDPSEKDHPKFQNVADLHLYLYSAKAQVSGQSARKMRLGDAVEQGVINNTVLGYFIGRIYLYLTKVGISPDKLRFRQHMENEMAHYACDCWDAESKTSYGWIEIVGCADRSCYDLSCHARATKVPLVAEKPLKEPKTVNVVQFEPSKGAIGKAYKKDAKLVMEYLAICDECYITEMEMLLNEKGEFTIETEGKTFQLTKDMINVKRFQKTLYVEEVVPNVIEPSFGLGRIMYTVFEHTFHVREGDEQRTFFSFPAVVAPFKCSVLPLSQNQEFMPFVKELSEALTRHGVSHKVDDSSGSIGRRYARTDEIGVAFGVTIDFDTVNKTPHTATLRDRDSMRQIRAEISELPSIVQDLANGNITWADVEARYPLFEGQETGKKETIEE
Description: in vitro IP: Fc-fused Nrp1 domain constructs on Protein A resin, recombinant GlyRS added, blot GlyRS.

B1: b2 (on Fc) (Fc fusion)
chain: KITDYPCSGMLGMVSGLISDSQITSSNQGDRNWMPENIRLVTSRSGWALPPAPHSYINEWLQIDLGEEKIVRGIIIQGGKHRENKVFMRKFKIGYSNNGSDWKMIMDDSKRKAKSFEGNNNYDTPELRTFPALSTRFIRIYPERATHGGLGLRMELLGCEVEAPTAGPTTPNGNLVDECDDDQANCHSGTGDDFQLTGGTTVLATEKPTVIDSTIQSEF
notes: also called Nrp1 b2 domain (res. Lys425-Phe643) fused to human IgG Fc; not shown: C-terminal human IgG Fc domain (and any V5-His tag from the vector); The CD33 signal peptide is cleaved on secretion
Turning to B1, the binding result is “no binding”.

B2: c-Fc (drawn as the c box on Fc) (Fc fusion)
chain: TAGPTTPNGNLVDECDDDQANCHSGTGDDFQLTGGTTVLATEKPTVIDSTIQSEFPTYGFNCEFGWGSHKTFCHWEHDNHVQLKWSVLTSKTGPIQDHTGDGNFIYSQADENQKGKVARLVSPVVYSQNSAHCMTFWYHMSGSHVGTLRVKLRYQKPEEYDQLVWMAIGHQGDHWKEGRVLLHKSLKLYQVIFEGEIGKGNLGGIAVDDISINNHISQEDCAKPADLDKKNPEIKIDETGSTPGYEGEGEGD
notes: also called Nrp1 c domain (res. Thr589-Asp840) fused to human IgG Fc; not shown: C-terminal human IgG Fc domain (and any V5-His tag from the vector); The CD33 signal peptide is cleaved on secretion
B2: the binding result is listed as “no binding”.

(Values after US20180313836A1 (Scripps Research, published 2018).)
